Consider 14 molecules from patent publication US20250154268A1 (NONA BIOSCIENCES SUZHOU, published 2025).

Assay [1] concerns the target T1, human CD25 (human, UniProt P01589 22-272).
T1 construct: whole, on cells; Always presented on cells; also called huCD25; IL2Rα
T1 sequence (looked up): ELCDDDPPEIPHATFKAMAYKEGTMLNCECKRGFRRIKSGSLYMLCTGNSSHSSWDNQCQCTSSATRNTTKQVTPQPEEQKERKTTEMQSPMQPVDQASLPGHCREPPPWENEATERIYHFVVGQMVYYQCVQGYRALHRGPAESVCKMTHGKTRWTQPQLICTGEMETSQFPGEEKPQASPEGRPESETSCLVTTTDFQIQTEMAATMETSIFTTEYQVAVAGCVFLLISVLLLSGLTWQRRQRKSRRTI
Put plainly: flow cytometry, SU-DHL-1 cells. Background: A flow cytometer gives signals particle by particle.
Description: (§1) Briefly, the CHOK1-huCD25 cells and HEK293-cynoCD25 cells were digested, the SU-DHL-1 cells, Karpas299 cells, Treg cells and Teff cells were collected, and the cells were resuspended in PBS containing 2% BSA. The cells were adjusted to a cell density of 1×10⁶ cells/mL, respectively. […] The cells were incubated at 4° C. for 1 hour in the dark. After the incubation, the cells were rinsed twice by adding pre-chilled PBS containing 2% BSA at 100 μL/well, and centrifuged at 500 g at 4° C. for 5 minutes, and the supernatant was discarded. […] The cells were washed twice by adding pre-chilled PBS containing 2% BSA at 100 μL/well, and centrifuged at 500 g at 4° C. for 5 minutes, and the supernatant was discarded. Finally, the cells were resuspended in pre-chilled PBS containing 2% BSA at 200 μL/well, and the fluorescence signal values were read using a BD CantoII flow cytometer.

Assay [2] has as its target T1, human CD25. Put plainly: flow cytometry, Karpas299 cells.
Description: as §1
Assay [3] has as its target T1, human CD25. Put plainly: flow cytometry, CHOK1-huCD25 cells.
Description: as §1
The target of assay [4] is T2, cynomolgus monkey CD25 (cynomolgus monkey, UniProt H6WS54 22-272).
T2 construct: whole, on cells; also called cynoCD25
T2 sequence: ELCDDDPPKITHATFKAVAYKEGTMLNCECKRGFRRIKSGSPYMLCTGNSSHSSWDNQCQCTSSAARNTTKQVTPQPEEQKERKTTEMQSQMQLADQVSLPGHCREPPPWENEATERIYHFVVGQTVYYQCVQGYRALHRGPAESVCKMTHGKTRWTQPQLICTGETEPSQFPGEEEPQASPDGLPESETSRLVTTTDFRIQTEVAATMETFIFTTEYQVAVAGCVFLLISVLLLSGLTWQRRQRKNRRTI
Put plainly: flow cytometry, HEK293-cynoCD25 cells.
Description: as §1

The target of assay [5] is T1, human CD25. Put plainly: flow cytometry, SU-DHL-1 cells. This is another data set of the same source.
Description: as §1
For assay [6], the target named is T1, human CD25. Put plainly: flow cytometry, Karpas299 cells. The source holds these as a separate data set.
Description: as §1
Assay [7] has as its target T2, cynomolgus monkey CD25. Put plainly: flow cytometry, HEK293-cynoCD25 cells. This is another data set of the same source.
Description: as §1
Assay [8] has as its target T1, human CD25. Put plainly: flow cytometry, SU-DHL-1 cells. The source holds these as a separate data set.
Description: as §1
Assay [9] addresses T1, human CD25. Put plainly: flow cytometry, Karpas299 cells. This is another data set of the same source.
The target in assay [10] is T1, human CD25. Put plainly: flow cytometry, SU-DHL-1 cells. The source holds these as a separate data set.
Description: as §1
For assay [11], the target named is T1, human CD25. Put plainly: flow cytometry, Karpas299 cells. This is another data set of the same source.
The target of assay [12] is T2, cynomolgus monkey CD25. Put plainly: flow cytometry, HEK293-cynoCD25 cells. The source holds these as a separate data set.
Description: as §1
The target in assay [13] is T1, human CD25. Put plainly: flow cytometry, SU-DHL-1 cells. This is another data set of the same source.
Description: as §1
Assay [14] has as its target T1, human CD25. Put plainly: flow cytometry, Karpas299 cells. The source holds these as a separate data set.
Assay [15] addresses T2, cynomolgus monkey CD25. Put plainly: flow cytometry, HEK293-cynoCD25 cells. This is another data set of the same source.
Description: as §1

Changes are numbered by the printed parent chain. Names and notes keep the numbering of the source. Read-outs that look alike come from different tables or passages of the source.

B1: PR005433 (antibody, human IgG1, kappa, V domains shown)
VH: EVQLLESGGGLVQPGGSLRLSCAASGFTFSSYAMSWVRQAPGKGLEWVSTLSGRGGSTYYADSVKGRFTISRDNSNNTLYLQMNSLRAEDTAVYYCAKEGYSSSYYEYFQHWGQGTLVTVSS
VL: EIVLTQSPATLSVSPGERATLSCRASQSISSNLAWYQQKPGQAPRLLIYGASTRATGIPARFSGSGSGTEFTLTISSLQSEDFAVYSCQQYNYWPLTFGGGTKVEIKR
notes: Fully human recombinant IgG1, kappa; Clone No. 308B6F9 is printed for both PR005433 and PR005435; also called 308B6F9
Consider B1, for which the EC50 in [1] came to 4.9 nM; in assay [2], 4.31 nM; in assay [3] it was 8.19 nM; in assay [4], 3.73 nM. The “Maximum MFI” value in [1] came to 44300 MFI; in assay [2], 24900 MFI; in assay [3] it was 22400 MFI; in assay [4], 60500 MFI.

B2: PR006930 (antibody, human IgG1, kappa, V domains shown)
VH: B1 VH with G26E, L51I, R54S, S57N, K65E, N76K, G100A, Y105W
VL: B1 VL with L4M, I29V, S31D, N32T, S87Y, K107R
notes: Fully human recombinant IgG1, kappa; also called 170H1E12
Take B2: the EC50 in assay [5] came to 2.2 nM; in [6], 2.12 nM; in assay [7], 3.25 nM. In addition, the “Maximum MFI” value came to 32000 MFI in [5], 16400 MFI in assay [6] and 146000 MFI in assay [7].

B3: PR005435 (antibody, human IgG1, kappa, V domains shown)
VH: QVQLQQSGPGLVKPSQTLSLTCAVSGDRVSNINAAWNWIRQSPSRGLEWLGRTYYRSKWYNDYAVSVKSRISINLDTSKDQFSLQLNPVTPEDTAVYYCARDPWEAFDYWGQGTLVTVSS
VL: B1 VL with L4M, I29V, G50A, S87F, Y93D, P95S, L96I, G100Q, K103R, V104L
notes: as for B1
Turning to B3, the EC50 was 97.6 nM in [1], 65.4 nM in assay [2], 15.2 nM in assay [3] and 4.15 nM in [4]. Moreover, the “Maximum MFI” value in [1] is 19500 MFI; in assay [2], 16200 MFI; in [3] it was 31700 MFI; in assay [4], 154000 MFI.

B4: PR006122 (antibody, human IgG1, kappa, V domains shown)
VH: QVQLVESGGGVVQPGRSLRLSCAASGFTFSSYYMHWVRQAPGKGLEWVAVIWYDGSNKYYADSVKGRFTISRDNSKNTLYLQMNSLRAEDTAVYYCAGAGKGELPFDYWGQGTLVTVSS
VL: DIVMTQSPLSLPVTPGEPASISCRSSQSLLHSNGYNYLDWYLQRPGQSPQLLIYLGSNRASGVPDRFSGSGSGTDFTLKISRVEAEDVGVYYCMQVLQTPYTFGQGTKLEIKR
notes: Fully human recombinant IgG1, kappa; also called 189F2G11
For B4, the figures for the EC50 in assay [5], in assay [6] and in [7] were 1.53 nM, 1.21 nM and 1.63 nM, respectively. For the same molecule, the “Maximum MFI” value in [5] was 43900 MFI; in assay [6], 18300 MFI; in [7], 82000 MFI.

B5: PR006927 (antibody, human IgG1, kappa, V domains shown)
VH: QVQLQESGPGLVKPSETLSLTCTVSGGSIRSYYWSWIRQPPGKGLEWIGYIYYSGSTNYNPSLKSRVTISVDTSKNQFSLKLSSVTAADTAVYYCARDILTGYSDWFFDLWGRGTLVTVSS
VL: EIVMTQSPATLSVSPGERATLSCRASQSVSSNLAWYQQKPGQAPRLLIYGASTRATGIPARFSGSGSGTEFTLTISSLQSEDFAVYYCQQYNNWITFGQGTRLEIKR
notes: Fully human recombinant IgG1, kappa; also called 113D5A1
On to B5, for which the half-maximal effective concentration (EC50) in [5] stood at 4.68 nM; in assay [6] it was 20.3 nM; in [7], 17.5 nM. The “Maximum MFI” value in [5] amounted to 27300 MFI; in [6] it was 10000 MFI; in [7], 90100 MFI.

B6: PR006932 (antibody, human IgG1, kappa, V domains shown)
VH: QVQLVQSGAEVKKPGASLKVSCKASGYTFTGYYMHWVRQAPGQGLEWMGWINSNSGDKRYAQKFQGRVTVTRDTSISTAYMELSRLRSDDTAVYYCAREGAGDAFDFWGQGTMVIVSS
VL: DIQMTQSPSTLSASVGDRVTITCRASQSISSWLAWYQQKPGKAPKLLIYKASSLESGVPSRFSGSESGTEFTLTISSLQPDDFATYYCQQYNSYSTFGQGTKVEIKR
notes: Fully human recombinant IgG1, kappa; also called 184B11A4
For B6, the figures for the EC50 in [5], in assay [6] and in assay [7] were 3.51 nM, 2.91 nM and 3.92 nM, respectively. In addition, the “Maximum MFI” value in assay [5] amounted to 34400 MFI; in assay [6], 12000 MFI; in [7], 151000 MFI.

B7: PR007181 (antibody, human IgG1, kappa, V domains shown)
VH: QVQLQESGPGLVKPSGTLSLTCAVSGGSISSSNWWSWVRQSPGKGLEWIGEIYHSGSTNYNPSLKSRVTISVDKSKNQFSLKLSSVTAADTAVYYCARDRLVAVAGIFDYWGQGTLVTVSS
VL: EIVMTQSPATLSVSPGERATFSCRASQTVSSDLAWYQQKPGQAPRLLIYGASTRATGIPARFSGSGSGTEFTLTISSLQSEDFAFYYCQQSNDWPYTFGQGTKLEIKR
notes: Fully human recombinant IgG1, kappa; also called 111C1D7
Regarding B7, the EC50 in assay [8] was determined as 1.68 nM; in assay [9], 5.81 nM. Further, the “Maximum MFI” value is 32500 MFI in [8] and 10200 MFI in assay [9].

B8: PR008014 (antibody, human IgG1, kappa, V domains shown)
VH: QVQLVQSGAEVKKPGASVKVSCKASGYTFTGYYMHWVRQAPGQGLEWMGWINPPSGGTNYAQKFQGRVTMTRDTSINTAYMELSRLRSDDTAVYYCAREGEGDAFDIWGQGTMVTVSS
VL: DFQMTQSPSTLSASVGDRVTITCRASQSISSWLAWYQQKPGKAPKLLIYEASSLKSGVPSRFSGSESGTEFTLTISSLQPDDFATYYCHQYLSYSTFGQGTKVEIKR
notes: PTM variant of PR006931 (VH: N54P, S60Y); human IgG1
Consider B8, for which the EC50 in assay [10] turned out to be 1.36 nM; in assay [11], 30 nM; in assay [12] it was 1.63 nM. For the same molecule, the “Maximum MFI” value in assay [10] is 32800 MFI; in assay [11], 9510 MFI; in [12], 31500 MFI.

B9: PR006984 (antibody, human IgG1, kappa, V domains shown)
VH: QVHLVESGGGVVQPGRSLRLSCAASGFTFSKYDMHWVRQAPGKGLEWVAVVWFDGINKSYIDSVRGRFTISRDNSKSTLYLQMNSLRDDDTAVYYCAREGVGDAFDIWGQGAMVTVSS
VL: B8 VL with F2I, E50K, K55E, S76T, D81N, H89Q, L92N, K102R, V103L
notes: Fully human recombinant IgG1, kappa; also called 180F6E8
As to B9, in assay [8], the EC50 stood at 6 nM and the “Maximum MFI” value was found to be 35300 MFI. Further, in assay [9], the EC50 was 55 nM and the “Maximum MFI” value stood at 8720 MFI.

B10: PR006931 (antibody, human IgG1, kappa, V domains shown)
VH: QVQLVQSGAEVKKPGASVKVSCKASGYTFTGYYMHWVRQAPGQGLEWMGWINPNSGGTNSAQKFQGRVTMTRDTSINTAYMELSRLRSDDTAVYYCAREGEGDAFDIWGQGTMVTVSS
VL: B8 VL with L92N
notes: Fully human recombinant IgG1, kappa; also called 171B2D12
For B10, the EC50 in assay [5] came to 8.48 nM; in assay [6], 40 nM; in [7], 6.25 nM. In addition, the results for the “Maximum MFI” value in assay [5], in [6] and in assay [7] were 33700 MFI, 9450 MFI and 152000 MFI, respectively.

B11: PR006928 (antibody, human IgG1, kappa, V domains shown)
VH: QVQLVQSGGGVVQPGRSLRLSCAASGFTFSNYDMHWVRQAPGKGLEWVAVIWYDGINKHYTDSVKGRFTMSRDNFKNTLHLQMNSLRAEDTAIYYCAREGAGDAFDIWGQGTMVTVSS
VL: DIQMTQSPSTLSASVGDRVTITCRASQSFDNWLAWYQQKPGKAPKLLIYKASSLESGVPSRFSGSGSGTEFTLTISSLQPDDFATYYCQQYNSYSTFGQGTRLEIKR
notes: Fully human recombinant IgG1, kappa; also called 150G7E2
Take B11: in assay [8], a half-maximal effect (EC50) was put at 1.85 nM and the “Maximum MFI” value turned out to be 34700 MFI. Further, in [9], the EC50 is 20 nM and the “Maximum MFI” value came to 10600 MFI.

B12: PR006769 (antibody, human IgG1, kappa, V domains shown)
VH: QVQLQGSGPGLVKPSGTLSLTCAVSPGSISSSNWWNWVRQPPGKGLEWIGEIYHRGSTNYNPSLKSRVTISVDKSKNQFSLKLSSVTAADTAVYYCTHYYYDSSGYYYGYWGQGTLVTVSS
VL: DIVMTQSPLSLPVTPGEPASISCRSSQSLLHRDVYNYVDWYLQKPGQSPQLLIYLGSNRASGVPDRFSGSGSGTDFTLKISRVEAEDVGVYYCMQALQTPLTFGGGTKVEIKR
notes: PTM variant of PR005436 (VH:D26P); human IgG1
Turning to B12, the EC50 worked out at 2.94 nM in [13], 39.3 nM in assay [14] and 3.53 nM in [15]. Also, the “Maximum MFI” value stood at 32200 MFI in assay [13], 16800 MFI in [14] and 132000 MFI in [15].

B13: PR006771 (antibody, human IgG1, kappa, V domains shown)
VH: B12 VH
VL: B12 VL with D33R, V34G
notes: as for B12
Consider B13, for which the EC50 in [13] turned out to be 4.56 nM; in assay [14], 40 nM; in assay [15] it was 5.35 nM. In addition, the “Maximum MFI” value in assay [13] amounted to 29800 MFI; in assay [14] it was 8970 MFI; in [15] it was 136000 MFI.

B14: PR005436 (antibody, human IgG1, kappa, V domains shown)
VH: B12 VH with P26D
VL: B12 VL with V34G
notes: Fully human recombinant IgG1, kappa; also called 310D11F6
Take B14: the concentration giving a half-maximal response (EC50) is 1.4 nM in [1], 67.2 nM in assay [2], 0.86 nM in assay [3] and 1.75 nM in [4]. For the same molecule, the “Maximum MFI” value is 33300 MFI in assay [1], 32100 MFI in [2], 49200 MFI in assay [3] and 189000 MFI in assay [4].

The EC50 is the midpoint of the concentration-response curve.
